Data set [1] has as its target T1, PfkB (Acetivibrio thermocellus, UniProt A3DCE8).
T1 construct: gene Cthe_0389; N-terminal His6 tag with ~4-kDa linker (pRSET-A, plasmid pAHCT0389), tag kept; codon-optimized, E. coli T7 Shuffle; ~40 kDa monomer
Briefly: coupled NADP+ reduction at […] nm, relative activity. The conditions noted are these: inhibitor; GTP as phosphate donor 2.24 mM; fructose 2.24 mM; 55 °C. The format is biochemical.

Data set [2] concerns the target T2, PfkA (Acetivibrio thermocellus, UniProt A3DEW4).
T2 construct: N-terminal His6 tag with ~4-kDa linker (pRSET-A, plasmid pAHCT1261), tag kept; codon-optimized, E. coli T7 Shuffle; ~40 kDa monomer
Description: coupled NADH oxidation at […] nm, relative activity. It counts as biochemical. Particulars: inhibitor; GTP as phosphate donor; 2.5 mM MgCl2; NH4Cl; 55 °C.

For data set [3], the target named is T2, PfkA. Description: coupled NADH oxidation at […] nm, relative activity. The conditions noted are these: inhibitor; 2 mM F6P, 2 mM ATP or GTP; NH4Cl; 55 °C. The format is biochemical.
Data set [4] deals with T1, PfkB. Briefly: coupled NADP+ reduction at […] nm, relative activity. It counts as biochemical. The conditions noted are these: inhibitor; fructose 2.24 mM, phosphate donor 2.24 mM; 55 °C.
Substrate in data set [5]: Nc1ncnc2c1ncn2[C@@H]1O[C@H](COP(=O)(O)OP(=O)(O)OP(=O)(O)O)[C@@H](O)[C@H]1O
Briefly: purified protein. The format is biochemical, Acetivibrio thermocellus.

Substrate in data set [6]: Nc1nc2c(ncn2[C@@H]2O[C@H](COP(=O)(O)OP(=O)(O)OP(=O)(O)O)[C@@H](O)[C@H]2O)c(=O)[nH]1
Description: purified protein. It counts as biochemical, Acetivibrio thermocellus.

Where [7] appears, read: F6P 2 mM constant, 5 mM MgCl2, 2 mM NH4Cl, pH 7.5, 55 °C, extrapolated beyond 2 mM ATP.
Setting [8] is: F6P 2 mM constant, 5 mM MgCl2, 2 mM NH4Cl, pH 7.5, 55 °C.
The mark [9] stands for this setting: fructose 2 mM constant, 5 mM MgCl2, pH 7.5, 55 °C.

For orientation: Km means the concentration of substrate that gives half-maximal velocity. One may read the Vmax as the top rate of the reaction or transport when substrate is in excess.

For the molecule `Nc1ncnc2c1ncn2[C@@H]1O[C@H](COP(=O)(O)O)[C@@H](O)[C@H]1O` [AMP], the “% relative activity at 2.24 mM” value on PfkB [1] stood at 38%.
For the molecule `Nc1ncnc2c1ncn2[C@@H]1O[C@H](COP(=O)(O)OP(=O)(O)O)[C@@H](O)[C@H]1O` [ADP], on PfkB [1], the “% relative activity at 2.24 mM” value amounted to 38%.
Regarding `O=P(O)(O)OP(=O)(O)O` [PPi], the “% relative activity at 0.05 mM” value on PfkA [2] is 21%.
In the case of `C=C(OP(=O)(O)O)C(=O)O` [PEP], the “relative activity at 2 mM” value at PfkA [3] is “addition of PEP or PPi caused a decrease in the activity of PfkA”.
Take `OC[C@H]1OC(O)[C@H](O)[C@@H](O)[C@H]1O` (stereo partly shown) [galactose]: the “relative activity at 2.24 mM” value on PfkB [4] is recorded as “Galactose also caused a noticeable decrease in activity”.

B1: PfkA (Acetivibrio thermocellus ATCC 27405) (protein)
chain: MSSVRTIGVLTSGGDAPGMNAAIRSVVRTGLYYGFKVLGIRKGFNGLINGDIEELTARSVGDIIHRGGTILQTARSPQFKTEEGLKKAMSMAKVFGIDALVVIGGDGSYRGARDISKLGLNVIGIPGTIDNDIGCTDYTIGFDTAMNTVQDAIDKIRDTAYSHERCSVLEVMGRHAGYIAVNVSISGGAEAVVLPEKPFDMDTDVIKPIIEGRNRGKKHYLVIVAEGGEGKAIEIAKEITEKTGIEARATILGHIQRGGSPTVYDRVMASQMGAKAVEVLMENKRNRVIVFKDNQIGDMDLEEALQVKKTISEDLIQLSKILAL
notes: N-terminal His6 tag with ~4-kDa linker (pRSET-A, plasmid pAHCT1261), tag kept; codon-optimized, E. coli T7 Shuffle; ~40 kDa monomer
With B1, in “purified protein [5]” (setting [7]), the Km was 2.5 ± 0.96 mM and the Vmax was 430 µmol/min/mg. Besides, in the data set “purified protein [6]” (setting [8]), the Km stood at 0.2 ± 0.02 mM and the Vmax turned out to be 282 µmol/min/mg.

B2: PfkB (Acetivibrio thermocellus ATCC 27405) (protein)
chain: MFDVVAVGELLIDFLPAGTNENGMPLFSSNPGGAPANVLAMLSKLGAKTAFIGKVGKDGFGQFLKATLDNAGIDTSNLLMSSSEMTTLAFVHLNEKGDRSFSFYRKHCADVSLDAGELDKDLLRTCHFLHFGAVSLTDEPSRTATLEAARIAKEAGAIISYDPNYRPALWSNEHEARKYMLKAVEYADLVKVSEEELWLLAESEDFSKGAHKLLAMGPSVVFVTCGEKGSYVFTGSCKANHCGYDVKVVDTTGAGDAFVGAMLWQLRGMSLEEISQICEQKWGELLAFSNAAGTIVATKKGAIPAMPDLDTINTFMRQFLEEK
notes: N-terminal His6 tag with ~4-kDa linker (pRSET-A, plasmid pAHCT0389), tag kept; codon-optimized, E. coli T7 Shuffle; ~40 kDa monomer
In the case of B2, in the data set “purified protein [5]” (setting [9]), the Km turned out to be 0.4 ± 0.1 mM and the Vmax came to 110 µmol/min/mg. Besides, in the data set “purified protein [6]” (setting [9]), the Michaelis constant (Km) was found to be 0.2 ± 0.08 mM and the Vmax amounted to 124 µmol/min/mg.
